Target: the molecule itself
Test: pull-down

B1: HkRP3 (1) (aa 1-724), GST- or MBP-fused (domain or fragment, UniProt A6NC98-1 1-724, looked up)
chain: MEGGKGPRLRDFLSGSLATWALGLAGLVGEAEDSEGEEEEEEEEPPLWLEKRFLRLSDGALLLRVLGIIAPSSRGGPRMLRGLDGPAAWRVWNLNHLWGRLRDFYQEELQLLILSPPPDLQTLGFDPLSEEAVEQLEGVLRLLLGASVQCEHRELFIRHIQGLSLEVQSELAAAIQEVTQPGAGVVLALSGPDPGELAPAELEMLSRSLMGTLSKLARERDLGAQRLAELLLEREPLCLRPEAPSRAPAEGPSHHLALQLANAKAQLRRLRQELEEKAELLLDSQAEVQGLEAEIRRLRQEAQALSGQAKRAELYREEAEALRERAGRLPRLQEELRRCRERLQAAEAYKSQLEEERVLSGVLEASKALLEEQLEAARERCARLHETQRENLLLRTRLGEAHAELDSLRHQVDQLAEENVELELELQRSLEPPPGSPGEAPLAGAAPSLQDEVREAEAGRLRTLERENRELRGLLQVLQGQPGGQHPLLEAPREDPVLPVLEEAPQTPVAFDHSPQGLVQKARDGGPQALDLAPPALDSVLEASAECPQAPDSDPQEAESPLQAAAMDPQASDWSPQESGSPVETQESPEKAGRRSSLQSPASVAPPQGPGTKIQAPQLLGGETEGREAPQGELVPEAWGLRQEGPEHKPGPSEPSSVQLEEQEGPNQGLDLATGQAEAREHDQRLEGTVRDPAWQKPQQKSEGALEVQVWEGPIPGESLASGV
Q: Does B1 bind?
A: binds

— publication PMC4390494 (Journal of immunology (Baltimore, Md. : 1950), 2015)
